The assay deals with MUC2C-N (human MUC2 4256-4803, C4786A; PTS3, VWCN, D4 and VWC1) (human). The assay is described as follows: cross-linking.

Consider “MUC2C-N (human MUC2 4256-4803, C4786A; PTS3, VWCN, D4 and VWC1) (domain or fragment)”, for which the stoichiometry N worked out at 2.

One may read the stoichiometry N as a count of units in the complex or per binding partner.

The values are drawn from doi:10.1101/2025.03.16.643548.
